Like-named read-outs stand apart in the source and are kept apart here.
Key:
[1] = molecular target: memGFP (zebrafish | not stated); assay: fluorescence cross-correlation spectroscopy
[2] = molecular target: Ror2-mCherry (not stated (xRor2 or zebrafish Ror2 cDNA cloned)); assay: fluorescence cross-correlation spectroscopy
[3] = molecular target: mCherry-xRor2 (not stated (prefix x in xRor2; Xenopus from memory)); assay: FRET or BRET
[4] = molecular target: Ror2-mCherry (not stated (xRor2 or zebrafish Ror2 cDNA cloned)); assay: fluorescence cross-correlation spectroscopy; remark: listed apart in the source
[5] = molecular target: zfRor2-ΔCRD-mCherry (zebrafish); assay: fluorescence cross-correlation spectroscopy
[6] = molecular target: Ror2-mCherry (not stated (xRor2 or zebrafish Ror2 cDNA cloned)); assay: fluorescence cross-correlation spectroscopy; remark: listed apart in the source

Kd [1] [µM] | Kd [2] [µM] | FRET efficiency [3] [%] | Kd [4] [µM] | Kd [5] [µM] | Kd [6] [µM] | Molecule
> 9.3 |  |  |  |  |  | cytosolic mCherry
 | 3.56 | 11.3 to 13 | 0.311 to 0.476 | > 6.68 | 0.45 | zfWnt5b-GFP (ligand) QLLVVANSWWSLAMNPIQRPEMYIIGAQPLCSQLTGLSQGQRKLCQLYQDHMVYIGEGAKTGIKECQYQFRQRRWNCSTVDNTSVFGRVMHIGSRETAFTYAVSAAGVVNAVSRACREGELSTCGCSRAARPRDLPRDWLWGGCGDNVNYGYRFAREFVDAREREKNYPRGSVEHARTLMNLQNNEAGRMAVYNLANVACKCHGVSGSCSLKTCWLQLADFRRVGEFLKEKYDSAAAMRINRRGKLELVNNRFNPPTGEDLVYIDPSPDYCLRNETTGSLGTQGRLCNKTSEGMDGCELMCCGRGYDQFKTYKHERCHCKFHWCCYVKCKRCTSLVDQFVCK

— article doi:10.1101/2022.04.07.487468
